# Legend:
# [1] = molecular target: IL-2 receptor (CD25) on HUT-102 and MT-2 cells (human) (UniProt P01589); experiment: cell-based or functional assay
# [2] = molecular target: T1, CD124 (IL4-receptor) on 4T1 triple-negative breast cancer cells (mouse) (UniProt P16382); experiment: cell-based or functional assay
# T1 sequence: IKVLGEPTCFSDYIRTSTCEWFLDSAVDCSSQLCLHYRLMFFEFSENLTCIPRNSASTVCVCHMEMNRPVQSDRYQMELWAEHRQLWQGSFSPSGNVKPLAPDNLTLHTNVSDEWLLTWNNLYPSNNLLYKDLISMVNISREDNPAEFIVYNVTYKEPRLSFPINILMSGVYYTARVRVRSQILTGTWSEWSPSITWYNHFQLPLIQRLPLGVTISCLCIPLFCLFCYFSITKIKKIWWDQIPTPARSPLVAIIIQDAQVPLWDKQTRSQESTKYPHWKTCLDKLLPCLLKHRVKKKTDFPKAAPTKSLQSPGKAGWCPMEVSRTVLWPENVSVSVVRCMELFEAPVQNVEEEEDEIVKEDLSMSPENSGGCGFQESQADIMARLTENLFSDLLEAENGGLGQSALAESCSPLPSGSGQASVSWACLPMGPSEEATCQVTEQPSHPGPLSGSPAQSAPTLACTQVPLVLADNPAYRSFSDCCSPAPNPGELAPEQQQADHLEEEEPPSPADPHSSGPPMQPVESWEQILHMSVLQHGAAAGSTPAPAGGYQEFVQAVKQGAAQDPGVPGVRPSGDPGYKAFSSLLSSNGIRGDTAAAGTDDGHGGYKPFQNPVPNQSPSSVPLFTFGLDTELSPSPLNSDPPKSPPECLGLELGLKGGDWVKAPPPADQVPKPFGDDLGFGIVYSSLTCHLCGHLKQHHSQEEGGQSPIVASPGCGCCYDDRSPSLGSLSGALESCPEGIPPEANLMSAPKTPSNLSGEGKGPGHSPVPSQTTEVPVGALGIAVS
# UniProt P01589, sequence (P01589 22-272): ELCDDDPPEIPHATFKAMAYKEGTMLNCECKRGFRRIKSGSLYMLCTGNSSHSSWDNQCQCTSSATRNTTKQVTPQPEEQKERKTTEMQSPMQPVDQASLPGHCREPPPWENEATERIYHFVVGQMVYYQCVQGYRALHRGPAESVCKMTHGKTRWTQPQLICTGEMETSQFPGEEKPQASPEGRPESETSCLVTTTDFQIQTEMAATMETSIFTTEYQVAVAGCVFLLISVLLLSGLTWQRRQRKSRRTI
substance,measurement,setting,value
C. diphtheriae-derived s-Ontak-His6 (SEQ ID NO: 58),MT-2 cell IC50 (earlier disclosed data),[1],0.12 pM
"E. coli-derived classic Ontak (denileukin diftitox, SEQ ID NO: 10)",IC50 against HUT-102 T cell lymphoma cells (in vitro cell killing),[1],1.8 pM
s-DAB1-389-mIL4-His6 (SEQ ID NO: 134),IC50 for killing 4T1 cells (Trypan blue viability),[2],10 pM
same,"IC50 of 4T1 cell migration inhibition (clonogenic assay, Giemsa staining)",[2],800 pM
